In publication PMC3321182 (The EMBO Journal, 2012):

Molecular target: T1, N-terminal autoproteolysis product of the crystallized HormR-GAIN fragment of rat CL1 (CIRL/Latrophilin 1) (rat, UniProt O88917 460-837)
T1 sequence (looked up): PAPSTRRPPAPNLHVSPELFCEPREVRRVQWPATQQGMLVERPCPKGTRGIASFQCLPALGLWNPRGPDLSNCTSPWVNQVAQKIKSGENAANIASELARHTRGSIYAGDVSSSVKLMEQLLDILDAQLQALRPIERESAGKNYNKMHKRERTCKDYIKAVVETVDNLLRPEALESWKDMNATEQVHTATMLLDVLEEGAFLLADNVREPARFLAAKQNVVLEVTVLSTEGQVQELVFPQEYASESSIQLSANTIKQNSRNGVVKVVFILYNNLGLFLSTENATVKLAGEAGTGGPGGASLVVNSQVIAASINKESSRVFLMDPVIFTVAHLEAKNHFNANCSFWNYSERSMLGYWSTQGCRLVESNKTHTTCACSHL
Assay: crystal structure

binding result: binds
B1: cleaved β-strand of the crystallized HormR-GAIN fragment of rat CL1 (C-terminal autoproteolysis product) (peptide, UniProt O88917 838-849, looked up)
chain: TNFAVLMAHREI
